{"source": "paper PMC4541722", "key": {"[1]": {"tested_on": "Nc1ccn([C@@H]2O[C@H](CO)[C@@H](O)C2(F)F)c(=O)n1", "assay": "purified protein", "type": "biochemical, Mesomycoplasma hyorhinis", "conditions": "PBS, 37 °C, 10 min, 4 nM enzyme, fit up to 30 mM substrate, second KM at very high concentrations not determined"}, "[2]": {"tested_on": "Nc1ccn([C@H]2C[C@H](O)[C@@H](CO)O2)c(=O)n1", "assay": "purified protein", "type": "biochemical, Mesomycoplasma hyorhinis", "conditions": "PBS, 37 °C, 10 min, 4 nM enzyme"}}}
{"substance": "CDAHyor (M. hyorhinis cytidine deaminase) (Mesomycoplasma hyorhinis MCLD)", "values": [{"measurement": "Km", "setting": "[1]", "value": "9.064 ± 1.487", "unit": "mM"}, {"measurement": "kcat", "setting": "[1]", "value": "105 ± 7", "unit": "s⁻¹"}, {"measurement": "kcat/Km", "setting": "[1]", "value": 12000, "unit": "M⁻¹ s⁻¹"}, {"measurement": "Km", "setting": "[2]", "value": "2.586 ± 0.114", "unit": "mM"}, {"measurement": "kcat", "setting": "[2]", "value": "127 ± 2", "unit": "s⁻¹"}, {"measurement": "kcat/Km", "setting": "[2]", "value": 49000, "unit": "M⁻¹ s⁻¹"}]}
